Results from the supplement of paper PMC9170038.

Tested on: MS2 coat protein
Test: apparent KD of MS2 coat protein; higher = weaker reporter binding
Details: Eterna round: R107
Method in brief: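 Titrations with SNAP-549-labelled MS2 coat protein ran in twofold steps from 0.7 or 1.5 nM to 3 µM, each step taking 0.8–1.5 h at the start and 10–20 min toward the end. The targets were designed RNA switches transcribed on-chip from Illumina sequencing clusters, held in 100 mM Tris-HCl pH 7.5, 80 mM KCl, 4 mM MgCl2, without or with constant ligand. Apparent KD was taken per design as the median of normalised cluster binding-curve fits.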

[1] = input ligand: theophylline 20 uM
[2] = input ligand: theophylline 2 mM
[3] = input ligand: tryptophan 2.4 mM

With “GAGACAUCGGGAAGGAGCGCAUCCAAACCACACAUGAGGAUCACCCAUGUAUAAAUAUGCAUGCAGGUAGGUCGCCCGGUAUCCC [Tiisqure]” the “apparent KD of MS2 coat protein” value (input ligand: arginine 13.2 mM) was 26.5 nM, the “apparent KD of MS2 coat protein” value (input ligand: none) was 27.8 nM and the “apparent KD of MS2 coat protein” value [1] was 40.2 nM. The “apparent KD of MS2 coat protein” value [2] was 35 nM and the “apparent KD of MS2 coat protein” value [3] was 28.9 nM.

With “ACAUGAAGAACAGCGGUGGGCGCGCUCGAUACCAGUACUUUGAUUUACCCUUGGCAGCGACAUGAGGAUCACCCAUGUGAGAUGA [XTheo A #1]” the “apparent KD of MS2 coat protein” value (input ligand: arginine 13.2 mM) was 16.9 nM, the “apparent KD of MS2 coat protein” value [1] was 22.4 nM and the “apparent KD of MS2 coat protein” value [3] was 18.6 nM.

With “AACCGAGGCUAUCCUCUAAGACUAUGUGAUACCAGAAUAAUUUUAUUCCCUUGGCAGCAUGACAUGAGGAUCACCCAUGUCUCUU [SSTheo A #8]” the “apparent KD of MS2 coat protein” value (input ligand: arginine 13.2 mM) was 21 nM, the “apparent KD of MS2 coat protein” value [1] was 27.4 nM and the “apparent KD of MS2 coat protein” value [3] was 26 nM.

“CAUGUUGUUGAAGAUACCAGAUUCUGAACGUUCACAUGAGGAUCACCCAUGUAAGUCCGAGUCCCUUGGCAGCUUAUACAGGUGG [Reatlala]” was tested, and the “apparent KD of MS2 coat protein” value (input ligand: arginine 13.2 mM) was 43.9 nM, the “apparent KD of MS2 coat protein” value [1] was 50.8 nM and the “apparent KD of MS2 coat protein” value [3] was 47.7 nM.

With “AUAAUAAUACAUGAGGAUCACCCAUGUAUGCGAGGACCGGUACGGCCGCCACUCGACCUCAUGCAUACAUGAGGAUCACCCAUGU [Same State Tryptophan A 4]” the “apparent KD of MS2 coat protein” value (input ligand: arginine 13.2 mM) was 18.4 nM, the “apparent KD of MS2 coat protein” value [1] was 55.8 nM and the “apparent KD of MS2 coat protein” value [2] was 67.2 nM.

In the case of “UAUGCACAUGAGGAUCACCCAUGUAUGGAAGGAGCGGUGAAUGAACCAGGUAGGUCGCCAUGGUGAGGAUCAUCUAUGUAAUCGU [Exclusion - Arginine A (Freestyle 7)]”, the “apparent KD of MS2 coat protein” value (input ligand: arginine 13.2 mM) was 38.9 nM, the “apparent KD of MS2 coat protein” value (input ligand: none) was 86 nM and the “apparent KD of MS2 coat protein” value [1] was 117 nM. For the same sequence, the “apparent KD of MS2 coat protein” value [2] was 128 nM and the “apparent KD of MS2 coat protein” value [3] was 86.8 nM.

“GGAUAGGACACGGCCGCCACUAGCUAGGAUACUAGCAACAUUUCCUCGCAUGAGGAUCACCCAUGUAGGACCGGGUGUCCUAUCG” was tested, and the “apparent KD of MS2 coat protein” value (input ligand: arginine 13.2 mM) was 159 nM, the “apparent KD of MS2 coat protein” value (input ligand: none) was 462 nM and the “apparent KD of MS2 coat protein” value [1] was 638 nM. The “apparent KD of MS2 coat protein” value [2] was 495 nM and the “apparent KD of MS2 coat protein” value [3] was 484 nM.

In the case of “GCACCAGGUACGGAUACCAGAAUUUGCCAAUUGGGUGAACAUGAGGAUCACCCAUGUUAUUUCCCUUGGCAGCCGUACCUGGUGC [ETB NP+V+V2 #10]”, the “apparent KD of MS2 coat protein” value (input ligand: arginine 13.2 mM) was 8.88 nM, the “apparent KD of MS2 coat protein” value [1] was 13.2 nM and the “apparent KD of MS2 coat protein” value [3] was 9.45 nM.

For “AAUCGUAAGGCGGCCGCCACUACACAUGAGGAUCACCCAUGUCUCGCAGGCUUGCGUUGGGAUAGUAGGACCGGGCCAGUAAUAA [Exclusion - Tryptophan B (Freestyle 14)]”, the “apparent KD of MS2 coat protein” value (input ligand: arginine 13.2 mM) was 18.5 nM, the “apparent KD of MS2 coat protein” value [1] was 28.8 nM and the “apparent KD of MS2 coat protein” value [2] was 26.6 nM.

“CACGAAAGAUCGGCCGCCACUAGCCUGUGUGUACUAGCACAUGAGGAUCACCCAUGUUCUUGCGUUAGGACCGGGAUUGAGCGUG [#05 Exclusion Tryptophan B]” was tested, and the “apparent KD of MS2 coat protein” value (input ligand: arginine 13.2 mM) was 17.1 nM, the “apparent KD of MS2 coat protein” value (input ligand: none) was 26.8 nM and the “apparent KD of MS2 coat protein” value [1] was 27.9 nM. The “apparent KD of MS2 coat protein” value [2] was 33.9 nM and the “apparent KD of MS2 coat protein” value [3] was 25.5 nM.

“GUGUGGCGCUCGGCCGCCACUCAGACAUGAGGAUCACCCAUGUAGAACAUGAGGAUCACCCAUGUGAGGACCGGGAGACACACGA [Exclusion Tryptophan B GF11]” was tested, and the “apparent KD of MS2 coat protein” value (input ligand: arginine 13.2 mM) was 164 nM, the “apparent KD of MS2 coat protein” value (input ligand: none) was 288 nM and the “apparent KD of MS2 coat protein” value [1] was 288 nM. The “apparent KD of MS2 coat protein” value [2] was 404 nM and the “apparent KD of MS2 coat protein” value [3] was 308 nM.

In the case of “AGGGAACAUGAGGAUCACCCAUGUGCCGAUACCAGUGAUUUUCAGCACCCUUGGCAGCGGAACCUUUGUUAUAUUAUUCUUAGGG [theeternabot_sameState_MS2_Theo_A_25]”, the “apparent KD of MS2 coat protein” value (input ligand: arginine 13.2 mM) was 32.5 nM, the “apparent KD of MS2 coat protein” value [1] was 42.4 nM and the “apparent KD of MS2 coat protein” value [3] was 41.2 nM.
